{"source": "patent US20100135996A1", "about": "(INSTITUT NATIONAL DE LA SANTE ET DE LA RECHERCHE MEDICALE …, published 2010)", "target": "T1, human Anti-Mullerian Hormone type II receptor (AMHR-II) (human, UniProt Q16671 18-573)", "T1 construct": "whole, on cells; In the western blot it was the same protein in reduced SDS-PAGE lysates of xenografts of these cells; also called hAMHR-II", "T1 sequence (looked up)": "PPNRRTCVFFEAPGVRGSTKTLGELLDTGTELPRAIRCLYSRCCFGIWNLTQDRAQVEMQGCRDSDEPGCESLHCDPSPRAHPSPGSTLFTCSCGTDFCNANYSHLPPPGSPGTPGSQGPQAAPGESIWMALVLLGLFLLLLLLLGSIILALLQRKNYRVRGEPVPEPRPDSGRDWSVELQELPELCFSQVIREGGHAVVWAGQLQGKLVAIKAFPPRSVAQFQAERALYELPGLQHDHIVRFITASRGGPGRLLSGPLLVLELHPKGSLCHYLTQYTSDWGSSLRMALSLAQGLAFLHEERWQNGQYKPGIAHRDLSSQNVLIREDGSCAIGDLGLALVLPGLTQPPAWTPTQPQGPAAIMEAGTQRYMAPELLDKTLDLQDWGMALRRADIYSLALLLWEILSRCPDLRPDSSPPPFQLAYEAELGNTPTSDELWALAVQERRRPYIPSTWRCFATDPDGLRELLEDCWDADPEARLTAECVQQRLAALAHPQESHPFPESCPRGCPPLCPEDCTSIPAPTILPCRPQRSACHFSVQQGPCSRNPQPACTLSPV", "assay": "flow cytometry of hybridoma supernatants on AMHR-II positive cells", "data": [{"binder": "anti-AMHR-II mAb 12G4 (antibody, mouse IgG1, V domains shown, also called antibody of hybridoma CNCM I-3673) VH: QVQLQQSGPELVKPGASVRMSCKASGYTFTSYHIHWVKQRPGQGLEWIGWIYPGDDSTKYNEKFKGKTTLTADKSSSTAYMLLSSLTSEDSAIYFCTRGDRFAYWGQGTLVTVSA VL: QIVLTQSPAIMSASLGEGITLTCSASSSVRYIHWYQQKSGTSPKLLIYSTSNLASGVPSRFSGSGSGTFHSLTISSVEAEDAADYYCLQWSSYPWTFGGGTKLEIK", "values": [{"measurement": "binding result", "value": "binds"}]}]}
